# Biological target: the molecule itself
# Assay: negative-stain TEM of fibrils
row,Protein,binding result
1,"Ac-LVKPSFYVYSRVKNLNSSRV-NH2 [LV20, 20-residue SARS-CoV-2 envelope protein peptide LVKPSFYVYSRVKNLNSSRV]",binds
2,"Ac-SFYVYSRVK-NH2 [SK9, SARS-CoV-2 envelope protein peptide SFYVYSRVK]",binds

# From article doi:10.1101/2024.04.25.591137 (bioRxiv, 2024)
